Here are results for 41 sequences from the nanobody polyreactivity screen of Harvey et al. (2022).

This data set is described as follows: yeast display, Sf9 membrane polyspecificity reagent, FACS + sequencing; frameworks hold sequencing errors. In short, it runs like this: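 A nanobody's polyreactivity label depends on the gate it was sorted from. Yeast display cells were stained with 10% biotinylated, detergent-solubilized Sf9 membrane reagent for 1 hour at 4 °C, enriched on streptavidin microbeads and sorted by FACS. The low and high (top ~1%) gates were set on anti-HA fluorescence for expression and streptavidin fluorescence for reagent binding.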
As for “QVQLVESGGGLVQAGGSLRLSCPASGIIFYRYSMGWKRQAPGKERQFVAAISRGGGSTYYADSVKGRFTISRDNAKNTFYLQMNSLKPEDTAVYYCNARDTRVTVDQYSIKRMDYWGKGTQVTVSS”, the “polyreactivity (PSR sort gate)” value is reported as “high polyreactivity”.

As for “QVQLVESGGGLVQAGGSLRLSCPASGITFIYYAMGWYRQAPGKEREFVAAINYRGTSTYYADSVKGRFTISRDNPKNTVYLQMNSLKPEDTAVYYCAAGPRRTWYRSLGYSFYKYYYWGQGTQVTVSS”, the “polyreactivity (PSR sort gate)” value is reported as “high polyreactivity”.

“QVQLVESGGGLVQAGGSLRLSCPASGLTFGGNAMGWYRQEPGKERELVAAISWSDDTTDYADSVKGRFTISRDNAKNTVYLQMNSLKPEDTAVYYCAARLPFEHVDYWGQGTQVTVSS”: the “polyreactivity (PSR sort gate)” value is “low polyreactivity”.

“QVQLVESGGGLVQAGGSLRLSCPASGNIFVYYAMGWSRQAHGKERELVAAITSDVSTYYADSVKGRFTISRDNAKNTVYLQMNSLKPEDTAVYYCATTGYGSYVIYWGQGTQVTVSS”: the “polyreactivity (PSR sort gate)” value is given as “low polyreactivity”.

For the sequence “QVQLVESGGGLVQAGGSLRLSCPASGRILPRNAMGWYRQAPGKERELVAGISSDGSTNYADSVKGRFTISRDNAKNTVYLQMNSLKPEDTAVYYCAADGVYDPNLYGYWGQGTQVTVSS”, the “polyreactivity (PSR sort gate)” value is “low polyreactivity”.

For “QVQLVESGGGLVQAGGSLRLSCPASGSIFDLYAMGWYRQAPGKERELVASIRYSGGRTYYADSVKGRFTISRDNAKNTVYLQMNSLKPEDTAVYYCNRDGGYTFIMDYWGQGNQVTVSS”, the “polyreactivity (PSR sort gate)” value is reported as “low polyreactivity”.

As to “QVQLVESGGGLVQAGGSLRLSCPASGSIFPYYAMGCYRQAPGKERELVAAISSGDITDYADSVKGRFTISRDNAKNTVYLQMNSLKPEDTAVYYCAAATLSLYWPYLFRGSDYDYWGQGSQVTVSS”, the “polyreactivity (PSR sort gate)” value is recorded as “low polyreactivity”.

With “QVQLVESGGGLVQAGGSLRLSCPASGSIFYYYAMGWYRQAPGKERELVAAIRGSGSSTYYADSVKGRFTISRDNAKNTVYLQMNSLKPEDTAVYYCAAYDLLVGLQYDYWGQGTQVTVSS”, the “polyreactivity (PSR sort gate)” value is on record as “low polyreactivity”.

Take “QVQLVESGGGLVQAGGSLRLSCPASGSNFGVYAMAWYRQAPGKERELVAAITSSGGSTYYADSVKGRFTISRDNAKNTVYFQMNSLKPEDTAVYYCSKDSFSHSHYTRYGYWGQGSQVTVSS”: the “polyreactivity (PSR sort gate)” value was “low polyreactivity”.

As for “QVQLVESGGGLVQAGGSLRLSCPASGSTFMKYDKGWYRQAPGIVRELVAAISWDGGSTYYADSVKGRFTISRDNAKNTVYLQMNSLKPEDTAVYYCNADYDVYLTIWYYYCEFDYWGQGSQVTVSS”, the “polyreactivity (PSR sort gate)” value was “low polyreactivity”.

Turning to “QVQLVESGGGLVQAGGSLRLSCPASGSTFSPNAIGWSRQAPGKERELLDAINYSSGSTYYADSVKGRFTISRDNAKNSVYLQMNSLKPEDTAVYYCAVRSYWSSLWTLGDYWGQGTQVTVSS”, the “polyreactivity (PSR sort gate)” value is given as “low polyreactivity”.

As for “QVQLVESGGGLVQAGGSLRLSCPASGSTFSWYAMGWSRQEPGKERELVAAISYSGGTYYADSVKGRFTISRDNAKNTVYLQKNSLKPEDTAVYYCAAQRTRYGYDYWGQGTQVTVSS”, the “polyreactivity (PSR sort gate)” value is reported as “high polyreactivity”.

Regarding “QVQLVESGGGLVQAGGSLRLSCPASGSTIFGTAMGWYRQAPGKDWELVAASSYSGDSTYYADSVKGRFTISRDNAKHTVYVEMISLKPEDTAVYYCAAGFVIKYDYWGQGTQVTVSS”, the “polyreactivity (PSR sort gate)” value was “low polyreactivity”.

With “QVQLVESGGGLVQAGGSLRLSCPASGSTISGNTMGWYRHDPGKERELVAAISFRSGRTYYADSVKGRFTISRDNAKNTGYLQMNSLIPEDTAVYYCNAEIYTYRTGRGYSRMDYWGQGSQVTVSS”, the “polyreactivity (PSR sort gate)” value is listed as “high polyreactivity”.

Consider “QVQLVESGGGLVQAGGSLRLSCPASGYIFYYNAMGWYRQAPGKERELVAAITSDDSTYYADSVKGRFTISRDNANNTVYLQMNSLKQEDTAVYYCNSVRYGHWYDYWGQGTQVTVSS”, for which the “polyreactivity (PSR sort gate)” value was “low polyreactivity”.

In the case of “QVQLVESGGGLVQAGGSLRLSCPDSGLIFVANAMGWYIQAPGKERELVAAISRSGGITYYADSVKGRFTISRDNATNTVYLKMNSLKPADTEVYYCAKTLPSNGHYDYWGQGTQVTVSS”, the “polyreactivity (PSR sort gate)” value is “low polyreactivity”.

With “QVQLVESGGGLVQAGGSLRLSCPTSGRNLRWYAMVWYIQAPGKERELVAAIKRSGDTTYYADSVKGRFTISRDNAKNTVYLQMNSLKPEHTAVYYCAARYTRKYDYWGQGTQVTVSS”, the “polyreactivity (PSR sort gate)” value is recorded as “high polyreactivity”.

“QVQLVESGGGLVQAGGSLRLSCSASGFIFTLYAMGWYRQAHGKERELVASIRGSGVNTYYADSVKGRFTISRDNAKNTDYLQMNSLKPEDTAVYYCAARTYRRPYYSWGQGTQVTVSS”: the “polyreactivity (PSR sort gate)” value is listed as “high polyreactivity”.

For “QVQLVESGGGLVQAGGSLRLSCSASGFIFYGYTMGWYRQAPGKERELVAAITFSGGRTYYADSVKGRFTISRDHAKNTVYLQMNSLKPEDSAVYYCAALHYGRYRMDYWGQGTQVTVSS”, the “polyreactivity (PSR sort gate)” value was “high polyreactivity”.

Turning to “QVQLVESGGGLVQAGGSLRLSCSASGFILSYYARGWYRQSPGKERELVAAISRAGSTNYADSVKGRFTISRDNAKNTVYLQMNSLKPEDTAVYYCNKRQYSARVSRSYDYWGQGTQVTVSS”, the “polyreactivity (PSR sort gate)” value is “high polyreactivity”.

As to “QVQLVESGGGLVQAGGSLRLSCSASGFTFDYYAMGWYRQAPGKERELVAAITWNTVSTYYADSVKGRFTISRDNAKNTVYLQMNSLKPEDTAVYYCAADTQWLYRYDYWGQGTQVTVSS”, the “polyreactivity (PSR sort gate)” value is “low polyreactivity”.

As to “QVQLVESGGGLVQAGGSLRLSCSASGFTFYRYAMGWYRQAPGKERELVAAITSGGSTYYADSVKGRFTISRDNAKNTVYLQMNSLKPEDTAVYYCAAQKARVFRGAWTRYEYWGQGTQVTVSS”, the “polyreactivity (PSR sort gate)” value is “high polyreactivity”.

For the sequence “QVQLVESGGGLVQAGGSLRLSCSASGFTLGFNAMGCYRQAPGKEREFVASITYRGGSTYYADSVKGRFTISRDNAKNTVYLQMNSLKPEDTAVYYCAARHRSSYSLYWGQGTQVTVSS”, the “polyreactivity (PSR sort gate)” value was “high polyreactivity”.

For “QVQLVESGGGLVQAGGSLRLSCSASGIIFRSYAMGWYRQAPGKERELVAAITGGGTTNYADSVKGRFTISRDNAKNTVYLQMNRLKPEDTAVYYCNAGLDWFWFNEMDYWGQGTQVTVSS”, the “polyreactivity (PSR sort gate)” value is listed as “low polyreactivity”.

As for “QVQLVESGGGLVQAGGSLRLSCSASGIILPVYAMGWYRQAPGKEMELVAAISRDGGSTYYSDSVKGLFTISRDNAKNNVYLLMNSLKPEDTAVYYCNAVWRGIYFNGKFDYWGQGTQVTVSS”, the “polyreactivity (PSR sort gate)” value is “high polyreactivity”.

On to “QVQLVESGGGLVQAGGSLRLSCSASGIIMDPNAMGWYRQAPGKERELVAGITRSGVSTYYSDSVKGRFTISRDNAKNTVYLLMNSLKPEDTAVYYCAKDRIYGSKGEDEDYWGQGSQVTVSS”, for which the “polyreactivity (PSR sort gate)” value was “low polyreactivity”.

With “QVQLVESGGGLVQAGGSLRLSCSASGITFGANTMGWYRQAPGKERELVAAITISGGITHYADSVKGRFTISRDHAKNTVYLQMNSLKPEDTAVYYCAAGAYWRLYPYRQRNGGRMYYWGQGTQVTVSS”, the “polyreactivity (PSR sort gate)” value is recorded as “low polyreactivity”.

As to “QVQLVESGGGLVQAGGSLRLSCSASGITFWLYDKGWYIQAPGKERELVARITYSGTSTYYADSVKGRFTISRDNAKNTVYLQMNSLEPEDTAVYYCAADLTYHYPRYITYEYWGQGTQVTVSS”, the “polyreactivity (PSR sort gate)” value is “low polyreactivity”.

Regarding “QVQLVESGGGLVQAGGSLRLSCSASGLTFSYYAMGLYRQAPGTERELVAAITSSGGNTYYADSVKGRFTISRDNAKNTVYLQMNSLKPEDTAVYYCNAVVGLGYNYWGQGNQVTVSS”, the “polyreactivity (PSR sort gate)” value is “high polyreactivity”.

On to “QVQLVESGGGLVQAGGSLRLSCSASGLTFYGYVMGWYRQAPGKERELVASISRSGRRTYYADSVKGRFTISRDNAKNTVYLQMNSLKPEDTAVYYCAAADHVGQEDDYWGLGTQVTVSS”, for which the “polyreactivity (PSR sort gate)” value is “low polyreactivity”.

With “QVQLVESGGGLVQAGGSLRLSCSASGRIFAAYAMGWYRQAPGKERELVATITRGGSTYYADSVKGRFTISRDNAKNTVYLQMNSLKPKDTAVYYCAVKRGFTQYKPFNYWGQGTQVTVSS”, the “polyreactivity (PSR sort gate)” value is given as “high polyreactivity”.

On to “QVQLVESGGGLVQAGGSLRLSCSASGRIFPFNDMGWYRQAPGKEREFVADISDNGGSTYADSVKGRFTISRDNAKNTVYLQMNSLKPEDTAVYYCAADLLDISSYDGMDYWGQGTQVTVSS”, for which the “polyreactivity (PSR sort gate)” value is given as “low polyreactivity”.

Take “QVQLVESGGGLVQAGGSLRLSCSASGRIFSRYAMGWYRQAPGKERELVATISSGGGTYYADSVKGRFTISRDNAKNTVYLQMNSLKPEDTAVYYCATRYPRKLRVPYDYWGQGTQVTVSS”: the “polyreactivity (PSR sort gate)” value is “high polyreactivity”.

Turning to “QVQLVESGGGLVQAGGSLRLSCSASGRTFEHNCMGWSRQAHGKERELVASITSVGSTDYADSVKGRFTISRDNAKNTVYLQMNSLKPEDTAVYYCAKTLGSQNYDFDYWGQGTQVTVSS”, the “polyreactivity (PSR sort gate)” value is “low polyreactivity”.

On to “QVQLVESGGGLVQAGGSLRLSCSASGRTFLGYAMGWYRQAPGKERELVAAITIGGGTYADSVKGRFTISRDNAKNTVYLQMNSLKPEDTAVYYCAKPGWYDGDYWGQGTQVTVSS”, for which the “polyreactivity (PSR sort gate)” value is on record as “low polyreactivity”.

Consider “QVQLVESGGGLVQAGGSLRLSCSASGRTFTVNAMGWYRQAPGKERELVATITYGGGSTYYADSVKGRFTISRDNAKNTVYVQMNSLKREDTAVYYCYADYWAVNYDYWGQGTQVTVSS”, for which the “polyreactivity (PSR sort gate)” value is “low polyreactivity”.

As to “QVQLVESGGGLVQAGGSLRLSCSASGRTFWRYAMGWYRQAPGKERELVAAISSGGRTNYADSVKGRFTISRDNAKNTVYLQMNSLIPEDTAVYYCAADSYYGYGYWGQGTQVTVSS”, the “polyreactivity (PSR sort gate)” value is listed as “high polyreactivity”.

As to “QVQLVESGGGLVQAGGSLRLSCSASGSIFDVFAMGWYRQAPGKERELVAGISRSGGSTYYADSVKGRFTISRDNAKNTVYLQMNSLKPEDTAVYYCAARYTYYRGRYDYWGQGTQVTVSS”, the “polyreactivity (PSR sort gate)” value is on record as “low polyreactivity”.

With “QVQLVESGGGLVQAGGSLRLSCSASGSIFGFYAMGWYRQAPGKERELVAAIDSGDSTNYADSVKGRFTISRDHAKNTVYLQMNSQKPEDSAVYYCNAEAWWYFWFDYWGQGTQVTVSS”, the “polyreactivity (PSR sort gate)” value was “low polyreactivity”.

For “QVQLVESGGGLVQAGGSLRLSCSASGSIFLIYAMGWYRQAPGKERELVATINRGDNTYYADSVKGRFTISRDNAKNSVYLQMNSLKPEDTAVYYCAARAYDLGYAGYDYWGQGTQVTVSS”, the “polyreactivity (PSR sort gate)” value was “low polyreactivity”.

For “QVQLVESGGGLVQAGGSLRLSCSASGSIFRSNAIGWYRQAPGKERELGAAISWSNDSTYYADSVKGRFTISRDNAKNTVYLQMNSLKPEDSAVYYCAAVGSGRYSGYDFLGQGTQVTVSS”, the “polyreactivity (PSR sort gate)” value is “high polyreactivity”.
